The values below come from article PMC6265350.

One data set deals with T1, MtrA Y102C~P Y102C (UniProt P9WGM7).
T1 sequence: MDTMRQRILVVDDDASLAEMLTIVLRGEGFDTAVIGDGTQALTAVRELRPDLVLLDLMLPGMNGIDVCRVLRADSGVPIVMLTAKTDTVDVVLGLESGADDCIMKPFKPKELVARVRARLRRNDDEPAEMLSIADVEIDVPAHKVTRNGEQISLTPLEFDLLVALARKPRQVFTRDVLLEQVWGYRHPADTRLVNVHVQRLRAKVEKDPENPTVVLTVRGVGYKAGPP
The data set can be described thus: EMSA. The conditions noted are these: 50 mM Tris-HCl pH 7.5, 50 mM NaCl, 10 mM MgCl2, 10 mM CaCl2, […].

Data set [1] deals with T2, MtrA Y102C (unphosphorylated) Y102C (UniProt P9WGM7).
T2 sequence: T1 sequence
Put plainly: EMSA. The conditions noted are these: 50 mM Tris-HCl pH 7.5, 50 mM NaCl, 10 mM MgCl2, 10 mM CaCl2, […]. For orientation: Mobility shift assays separate free from complexed probe on a gel.

Turning to “CTGTGCAGAGTAGGTGATCGGCGGCCCGACCGCGAGGAGCCGCGCTGTGACTGGCGGGACGAAAGTTACAGATGAAGATATTTGCGTCCGGTGTCGGTGAGCACGCTGCGCAGGATGGTTTCGATGGTGTCGAACTCGGGCTGTCCGCTAATCAGCGGGGGAGCCACCTGGACGACGGGGTCCCCGCGGTCGTCGGTG (double strand) [PdacB1]”, the binding result (with MtrA Y102C~P Y102C; in data set [1]) was “binds” each time.
